Changes are numbered by the printed parent chain.
What was measured:
Assay in all cases: cell_activity
Conditions in all cases: PAM 5'-GCTG-3'; HEK293T; averaged over AAVS1, VEGFA, EMX1 targets
[1] = test system: T1, CRISPR nuclease variant D535G D535G (synthetic construct)
T1 sequence: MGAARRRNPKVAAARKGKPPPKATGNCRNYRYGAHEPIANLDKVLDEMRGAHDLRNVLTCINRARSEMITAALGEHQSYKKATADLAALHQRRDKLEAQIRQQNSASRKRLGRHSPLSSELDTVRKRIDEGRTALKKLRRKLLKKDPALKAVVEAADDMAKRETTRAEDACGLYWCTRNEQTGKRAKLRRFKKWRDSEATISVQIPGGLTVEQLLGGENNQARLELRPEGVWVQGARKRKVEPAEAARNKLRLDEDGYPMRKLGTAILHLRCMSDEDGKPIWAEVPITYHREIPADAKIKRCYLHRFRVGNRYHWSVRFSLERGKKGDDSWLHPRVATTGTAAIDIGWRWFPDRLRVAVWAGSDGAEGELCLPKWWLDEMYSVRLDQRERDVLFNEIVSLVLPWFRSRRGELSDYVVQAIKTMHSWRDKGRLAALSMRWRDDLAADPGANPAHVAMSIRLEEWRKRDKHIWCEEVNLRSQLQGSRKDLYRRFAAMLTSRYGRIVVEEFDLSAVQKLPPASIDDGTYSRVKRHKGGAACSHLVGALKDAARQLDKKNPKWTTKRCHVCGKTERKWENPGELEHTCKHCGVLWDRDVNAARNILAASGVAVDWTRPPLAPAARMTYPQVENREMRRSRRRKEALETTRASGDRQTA

[2] = test system: T2, CRISPR nuclease variant L580G,A512R L580G,A512R (synthetic construct)
T2 sequence: T1 sequence with A512R, G535D, L580G

[3] = test system: T3, CRISPR nuclease variant S511R S511R (synthetic construct)
T3 sequence: T1 sequence with S511R, G535D

[4] = test system: T4, CRISPR nuclease variant D535G,L516R,I521R D535G,L516R,I521R (synthetic construct)
T4 sequence: T1 sequence with L516R, I521R

“GGUCCCAUCGGAACGGGUUGUGGUUCCGACGGAGGGAUACAUUGGUGGGG / GGAGGGATACATTGGTGGGG / CCCCACCAATGTATCCCTCC [AAVS1 crRNA (Table 5) ; AAVS1 target (Table 5)]” was tested, and the binding signal (fold indels vs WT) [1] was 3.57, the binding signal (fold indels vs WT) [2] was 3.75 and the binding signal (fold indels vs WT) [3] was 3.71. The binding signal (fold indels vs WT) [4] was 3.59.
